Data on 24 molecules can be found in US20230303695A1 (SHANGHAI XBH BIOTECHNOLOGY, published 2023).

Positions count from the first letter of the chain named. In names and notes the source's numbering stands.

For orientation: Kd means a measure of binding affinity in units of concentration. One may read the koff as the rate constant with which the complex falls apart. One may read the kon as the rate constant with which the complex forms.

Sequences and labels used below:
T1: recombinant human IGSF8 extracellular domain tagged by a human Fc region (IGSF8-hFc) (human, UniProt Q969P0 28-579, biotin label in Examples 17, 18 and 28 (site not given))
T1 construct: also called IGSF8-Fc fusion protein; IGSF8-hFc-biotin; not shown: human Fc region
T1 sequence: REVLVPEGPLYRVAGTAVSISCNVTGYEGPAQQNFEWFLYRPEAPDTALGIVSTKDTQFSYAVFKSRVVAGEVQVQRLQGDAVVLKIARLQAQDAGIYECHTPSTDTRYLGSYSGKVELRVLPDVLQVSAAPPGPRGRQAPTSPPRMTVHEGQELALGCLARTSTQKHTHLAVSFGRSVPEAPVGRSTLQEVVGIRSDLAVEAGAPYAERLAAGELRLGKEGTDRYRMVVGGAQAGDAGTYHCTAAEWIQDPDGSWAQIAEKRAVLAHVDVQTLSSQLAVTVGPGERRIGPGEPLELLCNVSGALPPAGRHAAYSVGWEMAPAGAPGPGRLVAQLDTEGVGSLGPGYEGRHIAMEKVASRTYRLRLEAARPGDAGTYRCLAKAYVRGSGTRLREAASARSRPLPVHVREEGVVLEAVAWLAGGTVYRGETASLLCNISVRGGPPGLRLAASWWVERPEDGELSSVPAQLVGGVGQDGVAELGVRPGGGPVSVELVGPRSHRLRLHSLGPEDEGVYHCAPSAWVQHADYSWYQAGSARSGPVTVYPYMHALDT

B1: L1-08 (antibody, V domains shown)
VH: QVQLVESGGGVVQPGRSLRLSCAASGFTFSTYGMHWVRQAPGKGLEWVAVIWDDGSYKYYGDSVKGRFTISRDNSKNTLYLQMNSLRAEDTAVYYCARDGSGWGYAFDIWGQGTMVTVSS
VL: DIQLTQSPSSLSASVGDRVTITCQASQDIGAYLNWYQHKPGKAPNPLVFDAANLETGVPPRFSATGSGTDFSLTITSLQPEDFATYYCQQYDSFPYTFGQGTRLDIK
B2: L1-25 (antibody, V domains shown)
VH: B1 VH with M115L
VL: DIQLTQSPSSLSASVGDRVTITCQASQDISPWLNWYQHKPGKAPKPLVFGSPNLETGVPSRFSASGSGTDFTLTISSLQPEDFATYYCQQYDSFPYTFGQGTKVEIK
B3: L1-19 (antibody, V domains shown)
VH: B1 VH with M115L
VL: DIQMTQSPSSLSASVGDRVTITCQASQDISPYLNWYQQKPGKAPKLLIYDAPNLETGVPSRFSGSGSGTDFTFTISSLQPEDIATYYCQQYDSFPYTFGQGTKVEIK
B4: L1-16 (antibody, V domains shown)
VH: B1 VH with M115L
VL: B3 VL with S30G, Y32W, D50G, A51S
B5: L1-22 (antibody, V domains shown)
VH: B1 VH with M115L
VL: B2 VL with V48I, F49Y, A64G, L73F, F83I
B6: L1-23 (antibody, V domains shown)
VH: B1 VH with M115L
VL: B2 VL with S30G
B7: L1-17 (antibody, V domains shown)
VH: B1 VH with M115L
VL: B3 VL with S30G, Y32W
B8: L1-21 (antibody, V domains shown)
VH: B1 VH with M115L
VL: B2 VL with S30G, V48I, F49Y, A64G, L73F, F83I
B9: L1-24 (antibody, V domains shown)
VH: B1 VH with M115L
VL: B2 VL with S30G, W32Y
B10: L1-12 (antibody, V domains shown)
VH: B1 VH
VL: B1 VL with G30S, A31E, D50G, A52D
B11: L1VL-P46L (antibody, V domains shown)
VH: B1 VH
VL: B1 VL with G30S, A31E, P46L
B12: L1VH-D99N (antibody, V domains shown)
VH: B1 VH with D99N
VL: B1 VL with G30S, A31E
B13: L1VL-Q24H (antibody, V domains shown)
VH: B1 VH
VL: B1 VL with Q24H, G30S, A31E
B14: L1-13 (antibody, V domains shown)
VH: B1 VH
VL: B1 VL with G30S, A31E, A52P
B15: L1VH-D54T (antibody, V domains shown)
VH: B1 VH with D54T
VL: B1 VL with G30S, A31E
B16: L1-10 (antibody, V domains shown)
VH: B1 VH
VL: B1 VL with G30S, A31E, D50T, A51S
B17: L1VH-D53Y (antibody, V domains shown)
VH: B1 VH with D53Y
VL: B1 VL with G30S, A31E
B18: L1-11 (antibody, V domains shown)
VH: B1 VH
VL: B1 VL with G30E, A31W, Y32A
B19: L1VL-V48D (antibody, V domains shown)
VH: B1 VH
VL: B1 VL with G30S, A31E, V48D
B20: L1VH-W52L (antibody, V domains shown)
VH: B1 VH with W52L
VL: B1 VL with G30S, A31E
notes: mutant of the L1 antibody
B21: L1VL-Y91F (antibody, V domains shown)
VH: B1 VH
VL: B1 VL with G30S, A31E, Y91F
B22: L1-09 (antibody, V domains shown)
VH: B1 VH
VL: B1 VL with G30S, A31E, D50A, A51R, A52D
B23: L1-14 (antibody, V domains shown)
VH: B1 VH
VL: B1 VL with G30S, A31E, D50S, A51Q, A52P
B24: L1-15 (antibody, V domains shown)
VH: B1 VH
VL: B1 VL with G30M, A31K, Y32T

In this assay the target is T1, recombinant human IGSF8 extracellular …. As to the kind of experiment: SPR, Ab captured. The protocol: The binding affinities of the L1 and L2 antibodies to IGSF8 recombinant protein were determined by surface plasmon resonance (SPR). Briefly, anti-human Fab antibody was imobilized on acarboxyl-derivatized SPR chip surface, and the antibodies were captured on the resulting surface at 5 μg/ml for 30 seconds.
For the molecule B1, the Kd was found to be 5.78 nM, the koff amounted to 0.00253 s⁻¹ and the kon is 437000 M⁻¹ s⁻¹.
For B2, the Kd came out at 4.46 nM, the koff came to 0.0022 s⁻¹ and the kon came out at 492000 M⁻¹ s⁻¹.
B3: the Kd turned out to be 4.58 nM, the koff stood at 0.000705 s⁻¹ and the kon is 154000 M⁻¹ s⁻¹.
Turning to B4, the Kd came out at 3.33 nM, the koff is 0.00111 s⁻¹ and the on-rate constant (kon) came out at 333000 M⁻¹ s⁻¹.
In the same order, the values of B5 are 2.94 nM, 0.000363 s⁻¹ and 123000 M⁻¹ s⁻¹.
In the same order, the values of B6 are 0.00235 nM, 1.19e-06 s⁻¹ and 506000 M⁻¹ s⁻¹.
For B7, the dissociation constant (Kd) came to 3.78 nM, the off-rate constant (koff) turned out to be 0.0012 s⁻¹ and the kon was 318000 M⁻¹ s⁻¹.
As to B8, the dissociation constant Kd was determined as 6.71 nM, the dissociation rate constant (koff) was found to be 0.00272 s⁻¹ and the association rate constant (kon) amounted to 406000 M⁻¹ s⁻¹.
As to B9, the Kd was 0.0068 nM, the koff is 3.06e-06 s⁻¹ and the kon came to 450000 M⁻¹ s⁻¹.
For B10, the equilibrium dissociation constant (Kd) stood at 3.08 nM, the koff is 0.00142 s⁻¹ and the kon was 461000 M⁻¹ s⁻¹.
Turning to B11, the Kd turned out to be 124 nM, the koff amounted to 0.00341 s⁻¹ and the on-rate (kon) is 27500 M⁻¹ s⁻¹.
For B12, the Kd worked out at 138 nM, the koff turned out to be 0.00246 s⁻¹ and the kon is 17800 M⁻¹ s⁻¹.
Taken in the same sequence, the figures for B13 were 144 nM, 0.00775 s⁻¹ and 53700 M⁻¹ s⁻¹.
For the molecule B14, the Kd came out at 4.88 nM, the koff stood at 0.00216 s⁻¹ and the on-rate constant (kon) is 443000 M⁻¹ s⁻¹.
B15: the dissociation constant (Kd) came out at 571 nM, the off-rate (koff) was 0.00131 s⁻¹ and the association rate constant (kon) came out at 2290 M⁻¹ s⁻¹.
With B16, the equilibrium dissociation constant (Kd) is 6.52 nM, the off-rate (koff) came out at 0.00196 s⁻¹ and the kon was determined as 301000 M⁻¹ s⁻¹.
Consider B17, for which the Kd is 365 nM, the off-rate (koff) stood at 0.0168 s⁻¹ and the association rate constant (kon) is 46100 M⁻¹ s⁻¹.
Taken in the same sequence, the figures for B18 were 7.08 nM, 0.0024 s⁻¹ and 339000 M⁻¹ s⁻¹.
With B19, the Kd turned out to be 708 nM, the off-rate (koff) stood at 0.023 s⁻¹ and the kon came out at 32400 M⁻¹ s⁻¹.
Consider B20, for which the Kd was found to be 855 nM, the koff came out at 0.0165 s⁻¹ and the kon was found to be 19300 M⁻¹ s⁻¹.
In the case of B21, the Kd stood at 321 nM, the koff came out at 0.00145 s⁻¹ and the kon came out at 4500 M⁻¹ s⁻¹.
Regarding B22, the dissociation constant (Kd) turned out to be 5.47 nM, the koff was determined as 0.00223 s⁻¹ and the on-rate constant (kon) was 408000 M⁻¹ s⁻¹.
In the same order, the values of B23 are 6.41 nM, 0.00244 s⁻¹ and 381000 M⁻¹ s⁻¹.
For the molecule B24, the Kd stood at 4.28 nM, the koff was 0.00155 s⁻¹ and the on-rate constant (kon) was determined as 362000 M⁻¹ s⁻¹.
